For one substance, % activity, 100 µM results are on record in US20140072613A1, “Compositions and Methods for Treating Cutaneous Scarring” (priority 2012, published 2014).

Among the targets are CDK2/cyclinA(h) (human) (UniProt P24941); CK2(h) (human); FAK(h) (human) (UniProt Q05397); HIPK2(h) (human) (UniProt Q9H2X6); cKit(V560G)(h) (human) (UniProt P10721); p70S6K(h) (human) (UniProt P23443).
Assay in all cases: cell-based or functional assay
The target of another assay is T1, Bmx(h) (human) (UniProt P51813).
T1 sequence (looked up): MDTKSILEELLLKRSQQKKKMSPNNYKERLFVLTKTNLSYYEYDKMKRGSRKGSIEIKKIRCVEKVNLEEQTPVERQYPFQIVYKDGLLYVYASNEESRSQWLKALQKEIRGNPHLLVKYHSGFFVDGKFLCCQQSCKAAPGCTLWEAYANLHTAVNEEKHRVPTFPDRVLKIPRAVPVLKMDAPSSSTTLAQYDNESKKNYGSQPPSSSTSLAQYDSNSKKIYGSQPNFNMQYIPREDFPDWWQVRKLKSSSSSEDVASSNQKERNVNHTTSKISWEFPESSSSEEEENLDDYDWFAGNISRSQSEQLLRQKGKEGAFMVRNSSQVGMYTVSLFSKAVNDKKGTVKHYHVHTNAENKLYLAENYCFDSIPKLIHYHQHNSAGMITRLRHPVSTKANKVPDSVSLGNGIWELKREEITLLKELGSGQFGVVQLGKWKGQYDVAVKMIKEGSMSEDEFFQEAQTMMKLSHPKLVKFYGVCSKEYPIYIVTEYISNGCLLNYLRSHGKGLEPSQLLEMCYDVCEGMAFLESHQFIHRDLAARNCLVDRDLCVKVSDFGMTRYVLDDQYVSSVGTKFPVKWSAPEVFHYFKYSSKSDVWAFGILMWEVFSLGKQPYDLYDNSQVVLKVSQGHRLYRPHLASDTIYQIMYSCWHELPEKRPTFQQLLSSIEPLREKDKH

A further assay has as its target T2, EphA3(h) (human) (UniProt P29320).
T2 sequence (looked up): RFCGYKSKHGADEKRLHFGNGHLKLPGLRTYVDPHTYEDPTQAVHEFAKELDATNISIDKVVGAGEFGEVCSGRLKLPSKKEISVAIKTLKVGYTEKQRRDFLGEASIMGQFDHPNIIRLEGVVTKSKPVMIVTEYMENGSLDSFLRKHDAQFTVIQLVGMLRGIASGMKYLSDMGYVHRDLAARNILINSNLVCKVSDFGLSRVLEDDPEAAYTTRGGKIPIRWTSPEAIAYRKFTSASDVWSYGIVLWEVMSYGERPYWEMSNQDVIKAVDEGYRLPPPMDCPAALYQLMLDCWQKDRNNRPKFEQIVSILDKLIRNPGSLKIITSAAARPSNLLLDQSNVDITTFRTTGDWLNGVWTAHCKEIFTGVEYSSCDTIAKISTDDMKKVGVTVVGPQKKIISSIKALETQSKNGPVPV

For a further assay, the target named is T3, MST2(h) (human) (UniProt Q13188).
T3 sequence (looked up): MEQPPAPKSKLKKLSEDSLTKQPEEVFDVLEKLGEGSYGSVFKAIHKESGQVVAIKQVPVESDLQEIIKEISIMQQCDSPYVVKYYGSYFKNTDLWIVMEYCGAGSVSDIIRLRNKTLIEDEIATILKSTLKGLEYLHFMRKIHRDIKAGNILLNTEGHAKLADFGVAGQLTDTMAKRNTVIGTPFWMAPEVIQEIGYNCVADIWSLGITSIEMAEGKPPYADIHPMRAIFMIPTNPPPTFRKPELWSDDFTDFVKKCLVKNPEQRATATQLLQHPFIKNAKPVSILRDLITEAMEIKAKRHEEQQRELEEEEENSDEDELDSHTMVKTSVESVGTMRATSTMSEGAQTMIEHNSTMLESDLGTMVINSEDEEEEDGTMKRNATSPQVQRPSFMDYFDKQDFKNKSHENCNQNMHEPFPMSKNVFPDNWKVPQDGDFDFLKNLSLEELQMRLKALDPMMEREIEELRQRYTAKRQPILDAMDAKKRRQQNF

The target of a further assay is T4, NEK3(h) (human) (UniProt P51956).
T4 sequence (looked up): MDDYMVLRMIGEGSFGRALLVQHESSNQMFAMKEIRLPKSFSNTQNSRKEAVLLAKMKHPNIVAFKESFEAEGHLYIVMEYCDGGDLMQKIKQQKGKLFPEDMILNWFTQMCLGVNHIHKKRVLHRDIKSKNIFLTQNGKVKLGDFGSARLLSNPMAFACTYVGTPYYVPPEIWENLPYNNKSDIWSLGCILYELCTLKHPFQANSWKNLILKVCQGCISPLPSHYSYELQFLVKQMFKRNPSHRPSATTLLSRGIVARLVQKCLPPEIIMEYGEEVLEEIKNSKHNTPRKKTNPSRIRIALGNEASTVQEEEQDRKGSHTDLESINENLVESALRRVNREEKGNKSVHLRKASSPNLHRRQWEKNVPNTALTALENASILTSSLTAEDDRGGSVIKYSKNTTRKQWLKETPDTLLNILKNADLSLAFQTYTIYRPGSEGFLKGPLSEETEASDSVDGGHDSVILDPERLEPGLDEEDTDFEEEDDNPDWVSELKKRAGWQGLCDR

The next assay deals with T5, NLK(h) (human) (UniProt Q9UBE8).
T5 sequence (looked up): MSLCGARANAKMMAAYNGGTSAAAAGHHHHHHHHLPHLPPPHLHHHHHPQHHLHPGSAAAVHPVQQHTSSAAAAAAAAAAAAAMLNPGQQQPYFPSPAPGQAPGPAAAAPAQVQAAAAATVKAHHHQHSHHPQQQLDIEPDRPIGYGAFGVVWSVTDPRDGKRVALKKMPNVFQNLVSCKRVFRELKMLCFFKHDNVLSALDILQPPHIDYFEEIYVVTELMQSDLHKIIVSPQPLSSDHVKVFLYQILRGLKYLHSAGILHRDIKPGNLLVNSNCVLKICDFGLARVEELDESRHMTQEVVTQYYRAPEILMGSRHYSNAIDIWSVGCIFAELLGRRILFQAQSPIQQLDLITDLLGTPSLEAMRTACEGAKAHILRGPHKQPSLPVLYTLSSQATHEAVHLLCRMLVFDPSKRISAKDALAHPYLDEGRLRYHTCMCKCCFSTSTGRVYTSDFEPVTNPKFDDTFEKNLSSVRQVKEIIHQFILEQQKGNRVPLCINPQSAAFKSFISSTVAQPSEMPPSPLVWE

HIPK2(h) (human), sequence (Q9H2X6 165-564 limits assumed): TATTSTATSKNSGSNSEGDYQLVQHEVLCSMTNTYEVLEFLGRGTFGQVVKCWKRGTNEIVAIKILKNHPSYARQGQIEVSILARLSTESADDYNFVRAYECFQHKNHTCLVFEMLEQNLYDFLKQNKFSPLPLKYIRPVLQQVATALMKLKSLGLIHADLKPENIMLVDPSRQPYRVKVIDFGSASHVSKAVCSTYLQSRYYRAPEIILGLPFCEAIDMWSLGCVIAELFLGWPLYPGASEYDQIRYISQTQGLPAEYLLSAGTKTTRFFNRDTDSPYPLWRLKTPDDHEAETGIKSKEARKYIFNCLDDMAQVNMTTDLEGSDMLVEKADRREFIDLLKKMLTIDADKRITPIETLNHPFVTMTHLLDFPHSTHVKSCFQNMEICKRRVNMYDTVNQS
p70S6K(h) (human), sequence (P23443 1-421): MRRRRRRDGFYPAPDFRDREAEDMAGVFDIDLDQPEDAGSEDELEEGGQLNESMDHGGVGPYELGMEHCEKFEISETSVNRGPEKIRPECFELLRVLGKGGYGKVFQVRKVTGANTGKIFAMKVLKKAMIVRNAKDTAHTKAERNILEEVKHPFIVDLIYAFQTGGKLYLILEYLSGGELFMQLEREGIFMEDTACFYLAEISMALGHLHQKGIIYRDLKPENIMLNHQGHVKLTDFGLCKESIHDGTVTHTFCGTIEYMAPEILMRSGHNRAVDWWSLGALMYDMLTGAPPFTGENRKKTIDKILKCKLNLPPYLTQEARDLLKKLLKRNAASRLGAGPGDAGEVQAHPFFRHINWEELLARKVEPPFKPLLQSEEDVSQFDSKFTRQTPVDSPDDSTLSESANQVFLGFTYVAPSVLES
cKit(V560G)(h) (human), sequence (P10721 544-976 V560G): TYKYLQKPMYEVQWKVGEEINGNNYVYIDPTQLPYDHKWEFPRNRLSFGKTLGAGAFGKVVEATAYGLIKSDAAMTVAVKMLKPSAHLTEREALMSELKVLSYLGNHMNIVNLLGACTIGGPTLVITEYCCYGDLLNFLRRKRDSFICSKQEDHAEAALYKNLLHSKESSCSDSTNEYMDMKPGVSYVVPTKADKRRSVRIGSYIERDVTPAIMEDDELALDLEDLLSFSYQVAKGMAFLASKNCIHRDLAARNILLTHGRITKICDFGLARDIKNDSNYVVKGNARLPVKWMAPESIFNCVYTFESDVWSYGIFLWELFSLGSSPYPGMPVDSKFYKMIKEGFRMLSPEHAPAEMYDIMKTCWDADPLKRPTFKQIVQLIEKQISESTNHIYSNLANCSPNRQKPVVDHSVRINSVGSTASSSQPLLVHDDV
FAK(h) (human), sequence (Q05397 whole entry): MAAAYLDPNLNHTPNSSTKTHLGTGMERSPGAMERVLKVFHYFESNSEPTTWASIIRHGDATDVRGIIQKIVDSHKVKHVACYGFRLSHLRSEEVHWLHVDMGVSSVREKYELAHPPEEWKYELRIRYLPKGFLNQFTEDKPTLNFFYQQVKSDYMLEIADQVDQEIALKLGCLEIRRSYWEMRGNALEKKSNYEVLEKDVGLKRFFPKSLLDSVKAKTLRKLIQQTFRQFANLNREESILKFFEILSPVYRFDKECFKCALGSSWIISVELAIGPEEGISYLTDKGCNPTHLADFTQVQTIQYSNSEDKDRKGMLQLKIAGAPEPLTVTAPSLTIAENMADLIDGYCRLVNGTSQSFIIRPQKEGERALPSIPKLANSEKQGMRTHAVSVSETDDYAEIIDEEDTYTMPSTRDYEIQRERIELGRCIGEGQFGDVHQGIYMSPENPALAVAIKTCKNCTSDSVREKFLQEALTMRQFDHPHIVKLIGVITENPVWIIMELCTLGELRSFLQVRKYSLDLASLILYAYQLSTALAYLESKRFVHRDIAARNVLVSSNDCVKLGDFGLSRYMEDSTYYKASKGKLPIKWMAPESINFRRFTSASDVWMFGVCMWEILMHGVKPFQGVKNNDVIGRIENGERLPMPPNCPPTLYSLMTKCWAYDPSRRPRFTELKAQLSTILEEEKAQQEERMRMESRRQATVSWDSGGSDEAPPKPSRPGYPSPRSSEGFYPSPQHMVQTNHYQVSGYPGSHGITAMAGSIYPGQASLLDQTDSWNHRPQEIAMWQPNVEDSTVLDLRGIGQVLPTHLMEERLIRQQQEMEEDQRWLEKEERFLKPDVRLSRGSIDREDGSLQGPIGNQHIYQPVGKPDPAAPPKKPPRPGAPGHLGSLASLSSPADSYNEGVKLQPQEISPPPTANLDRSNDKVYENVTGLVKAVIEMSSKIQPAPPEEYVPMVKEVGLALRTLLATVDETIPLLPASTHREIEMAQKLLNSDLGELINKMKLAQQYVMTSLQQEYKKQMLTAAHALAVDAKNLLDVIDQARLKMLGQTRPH

Turning to MMI-0500 (peptide), the % activity, 100 µM with Bmx(h) (human) was 45%; with CDK2/cyclinA(h) (human), 87%; with CK2(h) (human), 93%; with EphA3(h) (human), 33%; in the assay with FAK(h) (human), 94%; with HIPK2(h) (human) it was 38%. Moreover, the % activity, 100 µM with MST2(h) (human) worked out at 2%; with NEK3(h) (human) it was 20%; with NLK(h) (human), 19%; with cKit(V560G)(h) (human), 198%; in the assay with p70S6K(h) (human), 3%.
